This note sets out measurements from patent US20100129369A1 (Eli Lilly, published 2010).

One assay addresses T1, mouse c-Met ECD (mouse, UniProt P16056 25-931).
T1 construct: extracellular domain
The experiment in a line: ELISA, coated ECD (data not shown). (In general: In an ELISA, binding on a coated surface is turned into a signal by an enzyme label.)

The target in assay [1] is T2, RON-ECD-Fc (human, UniProt Q04912 25-957).
T2 construct: extracellular domain; Bought reagent; not shown: Fc part of the bought fusion
T2 sequence (looked up): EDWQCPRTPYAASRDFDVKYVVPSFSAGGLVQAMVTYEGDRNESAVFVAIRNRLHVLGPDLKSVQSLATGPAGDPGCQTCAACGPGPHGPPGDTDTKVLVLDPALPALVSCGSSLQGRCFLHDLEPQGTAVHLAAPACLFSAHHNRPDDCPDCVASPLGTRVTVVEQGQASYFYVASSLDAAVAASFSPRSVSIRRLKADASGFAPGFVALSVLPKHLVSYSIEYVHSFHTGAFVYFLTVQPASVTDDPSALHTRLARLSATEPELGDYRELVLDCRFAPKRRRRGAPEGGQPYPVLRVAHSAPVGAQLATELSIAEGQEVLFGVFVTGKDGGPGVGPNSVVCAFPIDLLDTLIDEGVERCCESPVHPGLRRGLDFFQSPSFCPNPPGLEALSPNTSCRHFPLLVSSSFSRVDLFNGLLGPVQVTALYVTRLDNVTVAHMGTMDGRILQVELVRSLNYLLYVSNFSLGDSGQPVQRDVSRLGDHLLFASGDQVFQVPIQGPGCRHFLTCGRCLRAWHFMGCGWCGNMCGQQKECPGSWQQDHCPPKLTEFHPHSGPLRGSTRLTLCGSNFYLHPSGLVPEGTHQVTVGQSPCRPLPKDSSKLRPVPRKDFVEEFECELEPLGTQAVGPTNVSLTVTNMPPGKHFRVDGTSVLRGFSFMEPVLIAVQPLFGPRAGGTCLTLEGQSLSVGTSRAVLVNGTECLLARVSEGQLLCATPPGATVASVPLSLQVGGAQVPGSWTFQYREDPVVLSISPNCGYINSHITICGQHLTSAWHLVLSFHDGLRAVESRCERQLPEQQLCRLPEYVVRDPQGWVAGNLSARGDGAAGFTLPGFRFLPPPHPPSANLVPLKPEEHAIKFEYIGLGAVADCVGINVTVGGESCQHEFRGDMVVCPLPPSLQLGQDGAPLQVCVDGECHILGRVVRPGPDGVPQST
The assay is described as follows: ELISA, coated ECD-Fc, antibody 2777.778 ng/mL. The method, then:
(§1) Wells of 96-well EIA/RIA high binding plates (Costar, #2592) are coated with 100 μL of 1 μg/mL human c-Met extracellular domain (ECD)-Fc-Flis fusion (SEQ ID NO:72), RON-ECD-Fc (R&D Systems, #1947-MS), or PlexinA2-ECD-Fc (Abnova, Taipei, Taiwan #H00005362-P01) in coating buffer (BioFX Labs, # COAT-1000-01) overnight at 4° C. […] After the plates are washed, 100 μL/well of substrate solution (BioFx, #TMBW-1000-01) are added and the plates are incubated for 10 min. at room temperature. 100 μL/well of stop solution (BioFx, # LSTP-1000-01) are added to stop the reaction. The colorimetric signals are developed and read at 450 nm using a SpectraMax 190 plate reader (Molecular Devices, Sunnyvale, Calif.). c-Met antibody binding to c-Met, RON and PlexinA2 ECDs is proportional to color signal production.

Assay [2] has as its target T3, PlexinA2-ECD-Fc (human, UniProt O75051 35-1237).
T3 construct: extracellular domain; Bought reagent
T3 sequence (looked up): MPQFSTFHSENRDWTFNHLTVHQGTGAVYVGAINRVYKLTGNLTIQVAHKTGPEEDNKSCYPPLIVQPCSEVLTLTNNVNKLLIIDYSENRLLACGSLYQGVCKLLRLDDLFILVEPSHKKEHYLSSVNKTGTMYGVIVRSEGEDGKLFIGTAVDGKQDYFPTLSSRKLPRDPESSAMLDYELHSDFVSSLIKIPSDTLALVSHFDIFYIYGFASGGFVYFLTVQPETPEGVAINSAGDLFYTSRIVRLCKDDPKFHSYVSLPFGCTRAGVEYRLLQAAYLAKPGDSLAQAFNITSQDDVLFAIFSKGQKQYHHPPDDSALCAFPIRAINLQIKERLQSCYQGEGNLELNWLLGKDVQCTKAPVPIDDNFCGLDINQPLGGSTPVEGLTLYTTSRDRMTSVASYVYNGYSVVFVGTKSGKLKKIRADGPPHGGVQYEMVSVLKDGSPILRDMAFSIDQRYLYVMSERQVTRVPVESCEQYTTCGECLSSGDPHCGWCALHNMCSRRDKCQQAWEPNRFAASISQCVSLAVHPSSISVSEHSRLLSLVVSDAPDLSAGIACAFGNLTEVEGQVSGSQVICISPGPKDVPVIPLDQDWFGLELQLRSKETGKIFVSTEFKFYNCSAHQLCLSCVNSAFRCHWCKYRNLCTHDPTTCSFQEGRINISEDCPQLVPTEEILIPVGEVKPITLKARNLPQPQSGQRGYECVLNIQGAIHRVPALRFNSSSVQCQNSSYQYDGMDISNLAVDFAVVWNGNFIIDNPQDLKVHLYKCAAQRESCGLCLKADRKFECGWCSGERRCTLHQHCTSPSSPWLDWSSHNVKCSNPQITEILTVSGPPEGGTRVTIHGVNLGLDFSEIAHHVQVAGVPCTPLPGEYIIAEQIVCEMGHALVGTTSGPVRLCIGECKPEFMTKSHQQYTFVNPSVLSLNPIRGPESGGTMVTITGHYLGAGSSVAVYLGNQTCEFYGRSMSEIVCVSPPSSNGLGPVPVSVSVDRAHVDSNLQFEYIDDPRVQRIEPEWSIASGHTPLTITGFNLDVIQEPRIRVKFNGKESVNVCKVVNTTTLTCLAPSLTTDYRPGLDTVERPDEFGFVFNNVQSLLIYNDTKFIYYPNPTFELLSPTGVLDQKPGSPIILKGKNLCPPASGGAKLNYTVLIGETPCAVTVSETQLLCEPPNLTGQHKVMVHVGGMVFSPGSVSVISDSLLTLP
The assay is described as follows: ELISA, coated ECD-Fc, antibody 2777.778 ng/mL. On the procedure: as §1

Assay [3] has as its target T4, Human c-Met-Flis-Fc ECD (human).
T4 construct: also called human c-Met extracellular domain (ECD)-Fc-Flis fusion; Human cMet-ECD-Fc-Flis
The assay is described as follows: ELISA, coated ECD-Fc, antibody 2777.778 ng/mL. The method, then:
as §1

For assay [4], the target named is T3, PlexinA2-ECD-Fc. The assay is described as follows: ELISA, coated ECD-Fc, antibody 12.860 ng/mL. On the procedure:
as §1

For assay [5], the target named is T4, Human c-Met-Flis-Fc ECD. The experiment in a line: ELISA, coated ECD-Fc, antibody 12.860 ng/mL. On the procedure: as §1
The target of assay [6] is T2, RON-ECD-Fc. The experiment in a line: ELISA, coated ECD-Fc, antibody 77.160 ng/mL.

T4 sequence (chain, as listed by the source limits assumed): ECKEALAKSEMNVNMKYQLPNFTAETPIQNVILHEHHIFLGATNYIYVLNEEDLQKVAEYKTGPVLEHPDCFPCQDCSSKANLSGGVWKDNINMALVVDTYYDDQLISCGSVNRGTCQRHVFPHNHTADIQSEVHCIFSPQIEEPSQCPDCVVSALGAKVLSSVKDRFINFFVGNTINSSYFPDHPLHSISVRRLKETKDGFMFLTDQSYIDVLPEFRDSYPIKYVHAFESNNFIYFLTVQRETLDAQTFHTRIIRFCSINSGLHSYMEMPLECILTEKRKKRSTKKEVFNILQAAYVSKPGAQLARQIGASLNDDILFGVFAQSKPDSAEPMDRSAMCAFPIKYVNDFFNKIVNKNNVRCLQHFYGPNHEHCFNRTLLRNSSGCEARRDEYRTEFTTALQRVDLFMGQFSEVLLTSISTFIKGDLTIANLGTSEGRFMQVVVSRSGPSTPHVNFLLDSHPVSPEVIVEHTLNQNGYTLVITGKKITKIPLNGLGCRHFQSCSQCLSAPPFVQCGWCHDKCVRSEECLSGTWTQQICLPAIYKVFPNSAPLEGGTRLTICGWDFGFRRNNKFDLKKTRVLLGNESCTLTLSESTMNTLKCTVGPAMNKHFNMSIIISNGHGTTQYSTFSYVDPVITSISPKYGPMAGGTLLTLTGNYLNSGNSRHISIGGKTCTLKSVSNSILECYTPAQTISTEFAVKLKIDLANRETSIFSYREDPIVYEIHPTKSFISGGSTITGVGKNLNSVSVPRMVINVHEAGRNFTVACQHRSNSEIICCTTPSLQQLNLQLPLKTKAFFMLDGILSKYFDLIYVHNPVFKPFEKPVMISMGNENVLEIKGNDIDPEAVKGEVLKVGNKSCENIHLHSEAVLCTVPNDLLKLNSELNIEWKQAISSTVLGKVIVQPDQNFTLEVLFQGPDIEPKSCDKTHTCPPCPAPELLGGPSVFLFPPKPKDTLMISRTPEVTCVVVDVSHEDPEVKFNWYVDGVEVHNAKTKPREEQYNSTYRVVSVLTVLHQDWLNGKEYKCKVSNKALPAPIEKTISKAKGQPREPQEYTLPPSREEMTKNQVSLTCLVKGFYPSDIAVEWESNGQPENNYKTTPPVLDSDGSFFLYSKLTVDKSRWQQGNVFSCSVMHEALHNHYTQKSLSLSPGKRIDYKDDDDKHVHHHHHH
T1 sequence (P16056 25-931): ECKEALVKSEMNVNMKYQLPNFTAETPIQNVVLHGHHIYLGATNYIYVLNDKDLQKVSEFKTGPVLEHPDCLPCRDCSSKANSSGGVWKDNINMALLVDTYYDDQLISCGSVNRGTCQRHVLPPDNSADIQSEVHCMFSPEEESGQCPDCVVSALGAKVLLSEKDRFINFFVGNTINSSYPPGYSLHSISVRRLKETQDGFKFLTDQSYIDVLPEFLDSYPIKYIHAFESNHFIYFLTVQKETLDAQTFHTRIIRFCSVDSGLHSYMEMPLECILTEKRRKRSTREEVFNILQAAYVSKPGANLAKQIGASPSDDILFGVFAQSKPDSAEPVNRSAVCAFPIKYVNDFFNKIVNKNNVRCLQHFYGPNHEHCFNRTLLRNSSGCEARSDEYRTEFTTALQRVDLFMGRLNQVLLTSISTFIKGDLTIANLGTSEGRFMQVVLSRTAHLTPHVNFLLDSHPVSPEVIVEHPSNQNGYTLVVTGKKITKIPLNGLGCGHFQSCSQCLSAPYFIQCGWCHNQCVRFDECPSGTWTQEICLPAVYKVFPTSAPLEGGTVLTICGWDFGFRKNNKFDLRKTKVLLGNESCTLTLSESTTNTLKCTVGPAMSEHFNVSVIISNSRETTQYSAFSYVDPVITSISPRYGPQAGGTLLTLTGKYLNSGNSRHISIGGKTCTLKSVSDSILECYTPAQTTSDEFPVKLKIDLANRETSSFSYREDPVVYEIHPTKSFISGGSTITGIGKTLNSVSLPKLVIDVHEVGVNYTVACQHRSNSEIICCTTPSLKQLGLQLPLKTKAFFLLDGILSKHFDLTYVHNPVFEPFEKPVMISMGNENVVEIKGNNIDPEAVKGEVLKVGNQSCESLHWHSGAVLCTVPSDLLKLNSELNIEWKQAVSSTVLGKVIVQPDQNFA

B1: C8-6 (antibody, human IgG2, kappa, V domains shown)
VH: QVQLVQSGAEVKKPGASVKVSCKASGYTFTDYYMHWVRQAPGQGLEWMGRVNPNRGGTTYNQKFEGRVTMTTDTSTSTAYMELRSLRSDDTAVYYCARTNWLDYWGQGTTVTVSS
VL: DIQMTQSPSSLSASVGDRVTITCSVSSSVSSIYLHWYQQKPGKAPKLLIYSTSNLASGVPSRFSGSGSGTDFTLTISSLQPEDFATYYCIQYSGYPLTFGGGTKVEIKR
notes: Called IgG4, kappa; also called Mab C8-6
As to B1, in the assay with mouse c-Met ECD, the binding result is recorded as “no binding (tested: 100 nM)”. Further, the “Average A450 nm” value with RON-ECD-Fc [1] was 0.088 A450 nm; with PlexinA2-ECD-Fc [2] it was 0.094 A450 nm; in the assay with Human c-Met-Flis-Fc ECD [3] it was 4 A450 nm; with PlexinA2-ECD-Fc [4], 0.085 A450 nm; with Human c-Met-Flis-Fc ECD [5] it was 4 A450 nm; in the assay with RON-ECD-Fc [6], 0.09 A450 nm.
